Measurements published in patent US20090130105A1.
pIC50: −log10 of the molar value.

What was measured:
[1] = molecular target: human IGF-1R(1-903)-Fc (human) (UniProt P08069); experiment: ELISA, blocking of 320 nM IGF-1 His on biotinylated hIGF-1R-Fc
[2] = molecular target: human IGF-1R(1-903)-Fc (human) (UniProt P08069); experiment: ELISA on hIGF-1R-Fc; competitor Zenon-labeled αIR3; +++++ = 90-100%
[3] = molecular target: human IGF-1R(1-903)-Fc (human) (UniProt P08069); experiment: ELISA on hIGF-1R-Fc; competitor biotinylated M14-G11; +++++ = 90-100%

Chain of human IGF-1R(1-903)-Fc (human) (P08069 31-933): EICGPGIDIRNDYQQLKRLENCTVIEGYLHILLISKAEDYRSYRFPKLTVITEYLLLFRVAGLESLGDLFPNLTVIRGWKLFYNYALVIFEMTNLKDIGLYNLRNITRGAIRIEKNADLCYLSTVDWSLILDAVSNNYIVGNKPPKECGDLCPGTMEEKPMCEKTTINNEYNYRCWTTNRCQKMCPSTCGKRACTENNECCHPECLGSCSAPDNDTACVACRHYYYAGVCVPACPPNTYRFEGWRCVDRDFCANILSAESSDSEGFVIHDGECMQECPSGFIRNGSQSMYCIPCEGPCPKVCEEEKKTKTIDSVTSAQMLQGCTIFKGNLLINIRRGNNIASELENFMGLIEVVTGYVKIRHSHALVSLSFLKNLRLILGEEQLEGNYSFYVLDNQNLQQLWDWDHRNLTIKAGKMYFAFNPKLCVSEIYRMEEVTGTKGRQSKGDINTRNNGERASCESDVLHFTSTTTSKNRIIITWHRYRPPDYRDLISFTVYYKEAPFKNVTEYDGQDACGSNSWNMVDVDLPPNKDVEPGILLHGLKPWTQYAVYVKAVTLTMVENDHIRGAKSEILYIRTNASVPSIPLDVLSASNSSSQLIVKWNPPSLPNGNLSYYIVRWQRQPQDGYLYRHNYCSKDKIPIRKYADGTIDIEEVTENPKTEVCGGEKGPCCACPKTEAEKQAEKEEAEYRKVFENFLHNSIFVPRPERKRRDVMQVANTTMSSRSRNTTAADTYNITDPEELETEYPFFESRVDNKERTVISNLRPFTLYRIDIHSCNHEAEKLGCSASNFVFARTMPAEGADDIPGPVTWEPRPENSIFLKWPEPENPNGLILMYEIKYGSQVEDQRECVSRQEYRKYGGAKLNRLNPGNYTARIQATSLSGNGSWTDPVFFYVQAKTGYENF

% IGF-1 (at 320 nM) bound to IGF-1R at saturating antibody concentrations [1]: 23%
pIC50 [1]: 8.31
percent competition [2]: 90 to 100%
percent competition [3]: 90 to 100%
Substance: αIR3 antibody
